Measured values published in patent publication US20200024330A1.

How the values were obtained:
Experiment in all cases: cell-based or functional assay
[1] = molecular target: HIV-1 Env of isolate MGRM-D-013 (HIV-1)
[2] = molecular target: HIV-1 Env of isolate 92UG114 (HIV-1)
[3] = molecular target: HIV-1 Env of isolate MGRM-AG-003 (CRF_AG), on pseudovirus (HIV-1)
[4] = molecular target: HIV-1 JR-CSF Env Y177A (HIV-1 (isolate JR-CSF)) (UniProt P20871)
[5] = molecular target: HIV-1 JR-CSF Env V127A (HIV-1 (isolate JR-CSF)) (UniProt P20871)
[6] = molecular target: HIV-1 Env of isolate 92UG046 (HIV-1)
[7] = molecular target: HIV-1 Env of isolate MGRM-AG-002 (CRF_AG), on pseudovirus (HIV-1)
[8] = molecular target: HIV-1 Env of isolate MGRM-D-003 (HIV-1)
[9] = molecular target: HIV-1 JR-CSF Env G471A (HIV-1 (isolate JR-CSF)) (UniProt P20871)
[10] = molecular target: HIV-1 Env of isolate CMU02 (CRF01_AE), on pseudovirus (HIV-1)
[11] = molecular target: HIV-1 Env of isolate 92UG001 (HIV-1)
[12] = molecular target: HIV-1 Env of isolate MGRM-F1-008 (subtype F), on pseudovirus (HIV-1)
[13] = molecular target: HIV-1 Env of isolate 92WR026 (HIV-1)
[14] = molecular target: HIV-1 Env of isolate MGRM-C-022 (HIV-1)
[15] = molecular target: HIV-1 Env of isolate 97ZA012 (HIV-1)
[16] = molecular target: HIV-1 Env of isolate MGRM-F1-013 (subtype F), on pseudovirus (HIV-1)
[17] = molecular target: HIV-1 Env of isolate MGRM-C-012 (HIV-1)
[18] = molecular target: HIV-1 Env of isolate MGRM-AG-006 (CRF_AG), on pseudovirus (HIV-1)
[19] = molecular target: HIV-1 Env of isolate MGRM-F1-010 (subtype F), on pseudovirus (HIV-1)
[20] = molecular target: HIV-1 Env of isolate MGRM-G-024 (HIV-1)
[21] = molecular target: HIV-1 JRCSF Env (pseudovirus) (HIV-1) (UniProt P20871)
[22] = molecular target: HIV-1 Env of isolate 98CN006 (subtype CRF08 BC) (HIV-1)
[23] = molecular target: HIV-1 Env of isolate MGRM-F1-008 (subtype F) (HIV-1)
[24] = molecular target: HIV-1 MGRM-Chronic-B-012 Env (pseudovirus) (HIV-1)
[25] = molecular target: HIV-1 94UG103 envelope glycoprotein (Env) on pseudovirus (HIV-1)
[26] = molecular target: HIV-1 Env of isolate MG RM-D-024 (subtype D) (HIV-1)
[27] = molecular target: HIV-1 Env of isolate MGRM-F1-014 (HIV-1)
[28] = molecular target: HIV-1 APV_6 Env (pseudovirus) (HIV-1)
[29] = molecular target: HIV-1 Env of isolate MG RM-AG-009 (HIV-1)
[30] = molecular target: HIV-1 Env of isolate MGRM-F1-015 (HIV-1)
[31] = molecular target: HIV-1 APV_13 Env (pseudovirus) (HIV-1)
[32] = molecular target: HIV-1 Env of isolate 98CN009 (subtype CRF07_BC) (HIV-1)
[33] = molecular target: HIV-1 Env of isolate MGRM-F1-020 (HIV-1)
[34] = molecular target: HIV-1 Env of isolate MG RM-D-019 (subtype D) (HIV-1)
[35] = molecular target: HIV-1 Env of isolate MG RM-D-026 (subtype D) (HIV-1)
[36] = molecular target: HIV-1 MGRM-Chronic-B-003 Env (pseudovirus) (HIV-1)

Row | Substance | Fold IC50 increase relative to wild-type [4] [fold] | Fold IC50 increase relative to wild-type [5] [fold] | Fold IC50 increase relative to wild-type [9] [fold] | IC50, pseudovirus neutralization [20] [µg/mL] | IC50, pseudovirus neutralization [21] [µg/mL] | IC50 (µg/mL), pseudovirus neutralization [22] [µg/mL] | IC50 (µg/mL), pseudovirus neutralization [23] [µg/mL] | IC50, pseudovirus neutralization [24] [µg/mL] | IC50 (ug/ml), neutralizing activity [25] [µg/mL] | IC50 (µg/mL), pseudovirus neutralization [26] [µg/mL] | IC50 [27] [µg/mL] | IC50, pseudovirus neutralization [28] [µg/mL] | neutralization IC50 [29] [µg/mL] | IC50 [30] [µg/mL] | IC50, pseudovirus neutralization [31] [µg/mL] | IC50 (µg/mL), pseudovirus neutralization [32] [µg/mL] | IC50 [33] [µg/mL] | IC50 (µg/mL), pseudovirus neutralization [34] [µg/mL] | IC50 (µg/mL), pseudovirus neutralization [35] [µg/mL] | IC50, pseudovirus neutralization [36] [µg/mL] | also measured
1 | 5343_B08 (PGT-135) (antibody) | 0.3 | 1.4 | 3 | 0.062 |  |  |  |  |  |  |  |  |  |  |  |  |  |  |  |  | IC50 [1]: > 50 µg/mL; IC50 [2]: 1.29 µg/mL; IC50, single-round pseudovirus neutralization [3]: > 50 µg/mL; IC50 [6]: > 50 µg/mL; IC50, single-round pseudovirus neutralization [7]: > 50 µg/mL; IC50 [8]: > 50 µg/mL; IC50, single-round pseudovirus neutralization [10]: > 50 µg/mL; IC50 [11]: > 50 µg/mL; IC50, pseudovirus neutralization [12]: > 50 µg/mL; neutralization IC50 [13]: 0.068 µg/mL; IC50 [14]: > 50 µg/mL; IC50 [15]: > 50 µg/mL; IC50, pseudovirus neutralization [16]: 21.1 µg/mL; IC50 [17]: 0.017 µg/mL; IC50, single-round pseudovirus neutralization [18]: 17.9 µg/mL; IC50, pseudovirus neutralization [19]: > 50 µg/mL
2 | 5123_A06 (PGT-125) (antibody) | 1.1 | 0.9 | 1 | > 50 | 0.004 | 0.201 | 0.361 | 0.036 | 0.0124 | > 50 | > 50 | 0.021 | 0.026 | > 50 | 0.007 | 0.03 | > 50 | 0.049 | > 50 | 0.157 | neutralization IC50 [25]: 0.0124 µg/mL; neutralization IC80 [25]: 0.0373 µg/mL; neutralization IC90 [25]: 0.071 µg/mL; neutralization IC95 [25]: 0.129 µg/mL
3 | 5141_B17 (PGT-126) (antibody) | 0.9 | 1.3 | 1.2 | > 50 | 0.008 | 0.046 | > 50 | 0.027 | 0.0091 | 0.376 | > 50 | 0.007 | 0.03 | > 50 | 0.012 | 0.019 | > 50 | > 50 | > 50 | 0.041 | IC50 [21]: 0.0061 µg/mL; IC80 [21]: 0.018 µg/mL; IC90 [21]: 0.0339 µg/mL; IC95 [21]: 0.0608 µg/mL
4 | 4877_D15 (PGT-122) (antibody) |  |  |  | 0.033 | 0.057 | 0.021 | > 50 | 0.066 | 1.46 | 0.185 | 0.195 | 0.019 | 0.128 | 31.4 | 0.778 | 0.013 | 0.321 | > 50 | > 50 | 0.008 | 
5 | 4858_P08 (PGT-123) (antibody) | 2.4 | 1.2 | 1.3 | 0.032 | 0.046 | 0.008 | > 50 | 0.227 | 0.846 | 0.023 | 0.111 | 0.023 | 0.073 | > 50 | 0.138 | 0.007 | 0.051 | > 50 | > 50 | 0.008 | IC50, pseudovirus neutralization [25]: 0.846 µg/mL; IC80, pseudovirus neutralization [25]: 3.29 µg/mL; IC90 (pseudovirus neutralization) [25]: 8.56 µg/mL; IC95, pseudovirus neutralization [25]: > 10 µg/mL
